Assay results reported in patent publication US20240117018A1.

What was measured:
Assay in all cases: cell-based or functional assay
[1] = target: HIV-1 Env of pseudovirus ZM197M.PB7 (HIV-1)
[2] = target: HIV-1 Env of pseudovirus Du422.1 (HIV-1)
[3] = target: HIV-1 Env of pseudovirus Ce1086_B2 (HIV-1)
[4] = target: HIV-1 Env of pseudovirus QH0692.42 (HIV-1)
[5] = target: HIV-1 Env of pseudovirus 263-8 (HIV-1)
[6] = target: HIV-1 Env of pseudovirus THRO4156.18 (HIV-1)
[7] = target: HIV-1 Env of pseudovirus ZM109F.PB4 (HIV-1)
[8] = target: HIV-1 Env of pseudovirus BF1266.431a (HIV-1)
[9] = target: HIV-1 Env of pseudovirus CAP210.2.00.E8 (HIV-1)
[10] = target: HIV-1 Env of pseudovirus MS208.A1 (HIV-1)
[11] = target: HIV-1 Env of pseudovirus Ce703010054_2A2 (HIV-1)
[12] = target: HIV-1 Env of pseudovirus X2088_c9 (HIV-1)
[13] = target: HIV-1 Env of pseudovirus Ce1176_A3 (HIV-1)
[14] = target: HIV-1 Env of pseudovirus 3365.v2.c2 (HIV-1)
[15] = target: HIV-1 Env of pseudovirus CAP45.2.00.G3 (HIV-1)
[16] = target: HIV-1 Env of pseudovirus 6244_13_B5_4576 (HIV-1)
[17] = target: HIV-1 Env of pseudovirus BJOX010000.06.2 (HIV-1)
[18] = target: HIV-1 Env of pseudovirus 246F C1G (HIV-1)
[19] = target: HIV-1 Env of pseudovirus 1054_07_TC4_1499 (HIV-1)
[20] = target: HIV-1 Env of pseudovirus R3265.c06 (HIV-1)
[21] = target: HIV-1 Env of pseudovirus Ce1172_H1 (HIV-1)
[22] = target: HIV-1 Env of pseudovirus CNE21 (HIV-1)
[23] = target: HIV-1 Env of pseudovirus Q842.d12 (HIV-1)
[24] = target: HIV-1 Env of pseudovirus CNE58 (HIV-1)
[25] = target: HIV-1 Env of pseudovirus CAAN5342.A2 (HIV-1)
[26] = target: HIV-1 Env of pseudovirus T278-50 (HIV-1)
[27] = target: HIV-1 Env of pseudovirus A07412M1.vrc12 (HIV-1)
[28] = target: HIV-1 Env of pseudovirus CNE19 (HIV-1)
[29] = target: HIV-1 Env of pseudovirus Ce704809221_1B3 (HIV-1)
[30] = target: HIV-1 Env of pseudovirus CNE52 (HIV-1)
[31] = target: HIV-1 Env of pseudovirus C2101.c01 (HIV-1)
[32] = target: HIV-1 Env of pseudovirus PVO.4 (HIV-1)
[33] = target: HIV-1 Env of pseudovirus SC05_8C11_2344 (HIV-1)
[34] = target: HIV-1 Env of pseudovirus 0815.v3.c3 (HIV-1)
[35] = target: HIV-1 Env of pseudovirus Ce0393_C3 (HIV-1)
[36] = target: HIV-1 Env of pseudovirus X1254_c3 (HIV-1)
[37] = target: HIV-1 Env of pseudovirus P0402_c2_11 (HIV-1)

N49P7 (antibody)
IC50 [1]: 0.109 µg/mL | IC80 [1]: 0.347 µg/mL | MPI [1]: 100 | IC50 [2]: 4.5 µg/mL | IC80 [2]: 19.5 µg/mL | MPI [2]: 93 | IC50 [3]: 0.089 µg/mL | IC80 [3]: 0.568 µg/mL | MPI [3]: 100 | IC50 [4]: 0.663 µg/mL | IC80 [4]: 2.41 µg/mL | MPI [4]: 100 | IC50 [5]: 0.056 µg/mL | IC80 [5]: 0.201 µg/mL | MPI [5]: 100 | IC50 [6]: 2.34 µg/mL | IC80 [6]: 12.4 µg/mL | MPI [6]: 99 | IC50 [7]: 0.034 µg/mL | IC80 [7]: 0.153 µg/mL | MPI [7]: 100 | IC50 [8]: 0.057 µg/mL | IC80 [8]: 0.199 µg/mL | MPI [8]: 100 | IC50 [9]: 1.82 µg/mL | IC80 [9]: 6.49 µg/mL | MPI [9]: 100 | IC50 [10]: 0.12 µg/mL | IC80 [10]: 0.479 µg/mL | MPI [10]: 100 | IC50 [11]: 0.132 µg/mL | IC80 [11]: 0.466 µg/mL | MPI [11]: 100 | IC50 [12]: 0.116 µg/mL | IC80 [12]: 0.338 µg/mL | MPI [12]: 100 | IC50 [13]: 0.204 µg/mL | IC80 [13]: 0.589 µg/mL | MPI [13]: 100 | IC50 [14]: 0.07 µg/mL | IC80 [14]: 0.186 µg/mL | MPI [14]: 100 | IC50 [15]: 0.06 µg/mL | IC80 [15]: 0.29 µg/mL | MPI [15]: 100 | IC50 [16]: 0.111 µg/mL | IC80 [16]: 0.386 µg/mL | MPI [16]: 100 | IC50 [17]: 0.085 µg/mL | IC80 [17]: 0.592 µg/mL | MPI [17]: 100 | IC50 [18]: 0.094 µg/mL | IC80 [18]: 0.255 µg/mL | MPI [18]: 100 | IC50 [19]: 0.494 µg/mL | IC80 [19]: 2.31 µg/mL | MPI [19]: 100 | IC50 [20]: 0.048 µg/mL | IC80 [20]: 0.282 µg/mL | MPI [20]: 100 | IC50 [21]: 8.5 µg/mL | IC80 [21]: 37.5 µg/mL | MPI [21]: 92 | IC50 [22]: 0.756 µg/mL | IC80 [22]: 6.02 µg/mL | MPI [22]: 97 | IC50 [23]: 0.021 µg/mL | IC80 [23]: 0.06 µg/mL | MPI [23]: 100 | IC50 [24]: 0.029 µg/mL | IC80 [24]: 0.067 µg/mL | MPI [24]: 100 | IC50 [25]: 0.409 µg/mL | IC80 [25]: 1.21 µg/mL | MPI [25]: 100 | IC50 [26]: 22.3 µg/mL | IC80 [26]: > 50 µg/mL | MPI [26]: 75 | IC50 (neutralisation, TZM.bl cells) [27]: 0.108 µg/mL | IC80 (neutralisation, TZM.bl cells) [27]: 0.645 µg/mL | MPI [27]: 100 | IC50 [28]: 0.009 µg/mL | IC80 [28]: 0.041 µg/mL | MPI [28]: 100 | IC50 [29]: 0.141 µg/mL | IC80 [29]: 0.932 µg/mL | MPI [29]: 100 | IC50 [30]: 0.008 µg/mL | IC80 [30]: 0.023 µg/mL | MPI [30]: 100 | IC50 [31]: 0.06 µg/mL | IC80 [31]: 0.34 µg/mL | MPI [31]: 100 | IC50 [32]: 0.107 µg/mL | IC80 [32]: 0.365 µg/mL | MPI [32]: 100 | IC50 [33]: 0.164 µg/mL | IC80 [33]: 0.403 µg/mL | MPI [33]: 100 | IC50 (neutralisation, TZM.bl cells) [34]: 0.016 µg/mL | IC80 (neutralisation, TZM.bl cells) [34]: 0.053 µg/mL | MPI [34]: 100 | IC50 [35]: 0.195 µg/mL | IC80 [35]: 0.802 µg/mL | MPI [35]: 100 | IC50 [36]: 2.97 µg/mL | IC80 [36]: 13.6 µg/mL | MPI [36]: 100 | IC50 [37]: 0.014 µg/mL | IC80 [37]: 0.061 µg/mL | MPI [37]: 100
